Reference: paper PMC12102759 (2025)

B1: PEX5 peptide 110-125 (Peroxisomal targeting signal 1 receptor), 16-mer library wild type / PEX14 Pex14 (PEX14 PEX14, residues 16-84) (parent complex)
chain 1: ADLALSENWAQEFLAA
chain 2: TPGSENVLPREPLIATAVKFLQNSRVRQSPLATRRAFLKKKGLTDEEIDMAFQQSGTAADEPSSLGPAT

Variants of: B1
Test: proteomic peptide phage display deep mutational scan (ProP-PD DMS): M13 P8 16-mer library selected against immobilised GST-tagged bait for four days (rounds), NGS of the eluted pools per day and pseudo-replica; bait immobilised on MaxiSorp plates (10 µg), library pre-cleared on GST, 2 h binding at 4 °C, five washes; one round per day, days 1-4; value from days 2 and 3

In order of rising screen value:
1. chain 1 N8L  0.000366 average fractional NGS count over selection days 2 and 3 (reads of this peptide / all reads for the bait, averaged over …
2. chain 1 D2W  0.000382 average fractional NGS count over selection days 2 and 3 (reads of this peptide / all reads for the bait, averaged over …
3. chain 1 F13R  0.000386 average fractional NGS count over selection days 2 and 3 (reads of this peptide / all reads for the bait, averaged over …
4. chain 1 A15F  0.000391 average fractional NGS count over selection days 2 and 3 (reads of this peptide / all reads for the bait, averaged over …
5. chain 1 A4N  0.000393 average fractional NGS count over selection days 2 and 3 (reads of this peptide / all reads for the bait, averaged over …
6. chain 1 A15M  0.000398 average fractional NGS count over selection days 2 and 3 (reads of this peptide / all reads for the bait, averaged over …
7. chain 1 A15P  0.00041 average fractional NGS count over selection days 2 and 3 (reads of this peptide / all reads for the bait, averaged over …
8. chain 1 A4V  0.000411 average fractional NGS count over selection days 2 and 3 (reads of this peptide / all reads for the bait, averaged over …
9. chain 1 L3N  0.000429 average fractional NGS count over selection days 2 and 3 (reads of this peptide / all reads for the bait, averaged over …
10. chain 1 D2Y  0.000446 average fractional NGS count over selection days 2 and 3 (reads of this peptide / all reads for the bait, averaged over …
11. chain 1 E7F  0.000467 average fractional NGS count over selection days 2 and 3 (reads of this peptide / all reads for the bait, averaged over …
12. chain 1 A10T  0.000469 average fractional NGS count over selection days 2 and 3 (reads of this peptide / all reads for the bait, averaged over …
13. chain 1 A1Y  0.000485 average fractional NGS count over selection days 2 and 3 (reads of this peptide / all reads for the bait, averaged over …
14. chain 1 D2K  0.000496 average fractional NGS count over selection days 2 and 3 (reads of this peptide / all reads for the bait, averaged over …
15. chain 1 A1G  0.000525 average fractional NGS count over selection days 2 and 3 (reads of this peptide / all reads for the bait, averaged over …
16. chain 1 A15H  0.000537 average fractional NGS count over selection days 2 and 3 (reads of this peptide / all reads for the bait, averaged over …
17. chain 1 L3T  0.000563 average fractional NGS count over selection days 2 and 3 (reads of this peptide / all reads for the bait, averaged over …
18. chain 1 N8P  0.000567 average fractional NGS count over selection days 2 and 3 (reads of this peptide / all reads for the bait, averaged over …
19. chain 1 Q11F  0.000569 average fractional NGS count over selection days 2 and 3 (reads of this peptide / all reads for the bait, averaged over …
20. chain 1 F13I  0.000603 average fractional NGS count over selection days 2 and 3 (reads of this peptide / all reads for the bait, averaged over …
21. chain 1 A10E  0.000658 average fractional NGS count over selection days 2 and 3 (reads of this peptide / all reads for the bait, averaged over …
22. chain 1 E7V  0.000676 average fractional NGS count over selection days 2 and 3 (reads of this peptide / all reads for the bait, averaged over …
23. chain 1 L3W  0.000685 average fractional NGS count over selection days 2 and 3 (reads of this peptide / all reads for the bait, averaged over …
24. chain 1 E12P  0.000686 average fractional NGS count over selection days 2 and 3 (reads of this peptide / all reads for the bait, averaged over …
25. chain 1 A4I  0.000694 average fractional NGS count over selection days 2 and 3 (reads of this peptide / all reads for the bait, averaged over …
26. chain 1 L3I  0.000729 average fractional NGS count over selection days 2 and 3 (reads of this peptide / all reads for the bait, averaged over …
27. chain 1 D2L  0.000809 average fractional NGS count over selection days 2 and 3 (reads of this peptide / all reads for the bait, averaged over …
28. chain 1 Q11L  0.00081 average fractional NGS count over selection days 2 and 3 (reads of this peptide / all reads for the bait, averaged over …
29. chain 1 D2R  0.000895 average fractional NGS count over selection days 2 and 3 (reads of this peptide / all reads for the bait, averaged over …
30. chain 1 Q11Y  0.000918 average fractional NGS count over selection days 2 and 3 (reads of this peptide / all reads for the bait, averaged over …
31. chain 1 L3A  0.00097 average fractional NGS count over selection days 2 and 3 (reads of this peptide / all reads for the bait, averaged over …
32. chain 1 N8E  0.00099 average fractional NGS count over selection days 2 and 3 (reads of this peptide / all reads for the bait, averaged over …
33. chain 1 E7L  0.00102 average fractional NGS count over selection days 2 and 3 (reads of this peptide / all reads for the bait, averaged over …
34. chain 1 A15L  0.00105 average fractional NGS count over selection days 2 and 3 (reads of this peptide / all reads for the bait, averaged over …
35. chain 1 N8D  0.00107 average fractional NGS count over selection days 2 and 3 (reads of this peptide / all reads for the bait, averaged over …
36. chain 1 A1N  0.00108 average fractional NGS count over selection days 2 and 3 (reads of this peptide / all reads for the bait, averaged over …
37. chain 1 A1T  0.00109 average fractional NGS count over selection days 2 and 3 (reads of this peptide / all reads for the bait, averaged over …
38. chain 1 A1E  0.00113 average fractional NGS count over selection days 2 and 3 (reads of this peptide / all reads for the bait, averaged over …
39. chain 1 F13Y  0.00124 average fractional NGS count over selection days 2 and 3 (reads of this peptide / all reads for the bait, averaged over …
40. chain 1 A1F  0.00127 average fractional NGS count over selection days 2 and 3 (reads of this peptide / all reads for the bait, averaged over …
41. chain 1 E7N  0.00129 average fractional NGS count over selection days 2 and 3 (reads of this peptide / all reads for the bait, averaged over …
42. chain 1 E7G  0.00129 average fractional NGS count over selection days 2 and 3 (reads of this peptide / all reads for the bait, averaged over …
43. chain 1 A4P  0.00132 average fractional NGS count over selection days 2 and 3 (reads of this peptide / all reads for the bait, averaged over …
44. chain 1 N8G  0.00135 average fractional NGS count over selection days 2 and 3 (reads of this peptide / all reads for the bait, averaged over …
45. chain 1 D2P  0.00139 average fractional NGS count over selection days 2 and 3 (reads of this peptide / all reads for the bait, averaged over …
46. chain 1 Q11H  0.00141 average fractional NGS count over selection days 2 and 3 (reads of this peptide / all reads for the bait, averaged over …
47. chain 1 A10G  0.00143 average fractional NGS count over selection days 2 and 3 (reads of this peptide / all reads for the bait, averaged over …
48. chain 1 E7M  0.0015 average fractional NGS count over selection days 2 and 3 (reads of this peptide / all reads for the bait, averaged over …
49. chain 1 D2A  0.00157 average fractional NGS count over selection days 2 and 3 (reads of this peptide / all reads for the bait, averaged over …
50. chain 1 N8I  0.0016 average fractional NGS count over selection days 2 and 3 (reads of this peptide / all reads for the bait, averaged over …
51. chain 1 N8H  0.00161 average fractional NGS count over selection days 2 and 3 (reads of this peptide / all reads for the bait, averaged over …
52. chain 1 N8W  0.00165 average fractional NGS count over selection days 2 and 3 (reads of this peptide / all reads for the bait, averaged over …
53. chain 1 E7Y  0.00176 average fractional NGS count over selection days 2 and 3 (reads of this peptide / all reads for the bait, averaged over …
54. chain 1 A10W  0.00181 average fractional NGS count over selection days 2 and 3 (reads of this peptide / all reads for the bait, averaged over …
55. chain 1 E12I  0.00181 average fractional NGS count over selection days 2 and 3 (reads of this peptide / all reads for the bait, averaged over …
56. chain 1 L3Q  0.00182 average fractional NGS count over selection days 2 and 3 (reads of this peptide / all reads for the bait, averaged over …
57. chain 1 E7T  0.00188 average fractional NGS count over selection days 2 and 3 (reads of this peptide / all reads for the bait, averaged over …
58. chain 1 E12S  0.00196 average fractional NGS count over selection days 2 and 3 (reads of this peptide / all reads for the bait, averaged over …
59. chain 1 E12H  0.00205 average fractional NGS count over selection days 2 and 3 (reads of this peptide / all reads for the bait, averaged over …
60. chain 1 A4H  0.00244 average fractional NGS count over selection days 2 and 3 (reads of this peptide / all reads for the bait, averaged over …
61. chain 1 E7P  0.00244 average fractional NGS count over selection days 2 and 3 (reads of this peptide / all reads for the bait, averaged over …
62. chain 1 E12V  0.00245 average fractional NGS count over selection days 2 and 3 (reads of this peptide / all reads for the bait, averaged over …
63. chain 1 E7R  0.00247 average fractional NGS count over selection days 2 and 3 (reads of this peptide / all reads for the bait, averaged over …
64. chain 1 N8S  0.00269 average fractional NGS count over selection days 2 and 3 (reads of this peptide / all reads for the bait, averaged over …
65. chain 1 L3M  0.00299 average fractional NGS count over selection days 2 and 3 (reads of this peptide / all reads for the bait, averaged over …
66. chain 1 E12W  0.0033 average fractional NGS count over selection days 2 and 3 (reads of this peptide / all reads for the bait, averaged over …
67. chain 1 F13H  0.00342 average fractional NGS count over selection days 2 and 3 (reads of this peptide / all reads for the bait, averaged over …
68. chain 1 E7A  0.00398 average fractional NGS count over selection days 2 and 3 (reads of this peptide / all reads for the bait, averaged over …
69. chain 1 E7S  0.00412 average fractional NGS count over selection days 2 and 3 (reads of this peptide / all reads for the bait, averaged over …
70. chain 1 A4T  0.00418 average fractional NGS count over selection days 2 and 3 (reads of this peptide / all reads for the bait, averaged over …
71. chain 1 E7W  0.0042 average fractional NGS count over selection days 2 and 3 (reads of this peptide / all reads for the bait, averaged over …
72. chain 1 L3H  0.00618 average fractional NGS count over selection days 2 and 3 (reads of this peptide / all reads for the bait, averaged over …
73. chain 1 A10Y  0.0104 average fractional NGS count over selection days 2 and 3 (reads of this peptide / all reads for the bait, averaged over …
74. chain 1 Q11W  0.0122 average fractional NGS count over selection days 2 and 3 (reads of this peptide / all reads for the bait, averaged over …
75. chain 1 A10H  0.013 average fractional NGS count over selection days 2 and 3 (reads of this peptide / all reads for the bait, averaged over …
